{"source": "patent US20100278806A1", "about": "“Composition Containing Arazyme for the Prevention and Treatment of Arthritis” (Insect Biotech Co., Ltd., priority 2008, published 2010)", "key": {"[1]": {"test_system": "joint cartilage of osteoarthritis-induced right knee", "test": "Visual observation of the changes of joint cartilage, osteoarthritis-induced rabbits", "type": "in vivo, NewZealand White Rabbits", "conditions": "autopsy at 12 weeks", "excerpt": "(§1) It is known that not only repetitive joint damage but also a lesion similar to that of human degenerative osteoarthritis is induced in a rabbit model with knee meniscus removed. A method for tearing the cranial cruciate ligament is used as a method for inducing osteoarthritis in rabbits (Hulth A. et al., Acta Orthp Scand. 41:522-530, 1970). In the present experiment, the cranial cruciate ligament of a rabbit was torn to induce the instability of joints and simultaneously medial meniscus was removed to induce osteoarthritis.\n(§2) The cranial cruciate ligaments of right knees of all the experimental animals were torn to induce the instability of joints and medial meniscuses were simultaneously removed to induce osteoarthritis. […]\n(§3) In order to induce osteoarthritis effectively, all the animals in the experimental group were subjected to a forced exercise task using a treadmill for 5 min every day from the day 4 after the induction surgery of osteoarthritis, and arthrography was performed on both knee joints at 4 weeks, 8 weeks, and 12 weeks after administration of the test material to measure the changes of joint surface. An autopsy was performed at 12 weeks after administration of the test material to conduct serologic tests of blood samples through collection of blood and control effects of the test material on osteoarthritis were assessed through a histopathological test. […]"}, "TNF-α": {"test_system": "TNF-α", "test": "Measurement of TNF-α in serum by ELISA, osteoarthritis-induced rabbits", "type": "in vivo, NewZealand White Rabbits", "conditions": "autopsy at 12 weeks of administration in drinking water, arazyme 250 mg/kg, celecoxib 10 mg/kg/day, no statistical significance", "excerpt": "as §1, §2, §3"}, "[2]": {"test_system": "joint cartilage of osteoarthritis-induced right knee", "test": "Histopathological observation of joint cartilage (H&E, toluidine blue, azan), osteoarthritis-induced rabbits", "type": "in vivo, NewZealand White Rabbits", "conditions": "autopsy at 12 weeks, optical microscope", "excerpt": "as §1\nThe cranial cruciate ligaments of right knees of all the experimental animals were torn to induce the instability of joints and medial meniscuses were simultaneously removed to induce osteoarthritis. Sharm-operations were performed on the left knees to be used as a control against administration of a test material. Tear of cranial cruciate ligament and medial meniscus removal were performed as follows. The animals were fasted for 6 to 12 hours prior to the operation and only drinking water was supplied. Subsequently, an anesthetic of Xylazine (Rompun, Bayer Korea Ltd.) at 1.25 ml/6 mg/kg and Zoletil50 (Virbac) at 0.2 ml/10 mg/kg was intramuscularly injected to anesthetize the animals. […]\nas §3"}, "[3]": {"test_system": "Wistar-derived SPF female rats", "test": "Acute toxicity experiment of arazyme, single oral administration", "type": "in vivo", "description": "4 groups, each consisting of 4 Wistar-derived specific pathogen free (SPF) female rats (Orient Co., Ltd., Seoul, Korea), were bred in an animal laboratory under conditions of temperature 22° C.±3° C., humidity 55±10%, and illumination 12 L/12 D. After purchase, the rats were quarantined and adapted in the animal laboratory for 1 week. During the whole test period, 5 or less rats were accommodated in each polycarbonate cage (240 W×390 L×175 H mm). For individual identification, both skin mark using an oil marker and group distinction cards at each breeding box were used. Solid fodder for experimental animals (PMI Nutrition International, USA) was sterilized, and tap water was freely given by a water bottle.\nArazyme in the Examples was dissolved in sterilized water for injection at 0, 1250, 2500, and 5000 mg/kg, prepared at a dose of 10 ml/kg, and orally administered to the rats using zonde one. After 1 week adaptation, the rats were divided into 4 groups and arazyme was administered to 10 week-old rats at each concentration to observe general symptoms. Subsequently, an autopsy was performed after 24 hours in order to evaluate the toxicity of arazyme on actual organs.\nAfter oral administration of arazyme into female rats, the behaviors, appearances, and functions of the animals were investigated in order to observe general symptoms exactly according to the administration of a test material and evaluate the toxicity."}, "[4]": {"conditions": "after single oral administration up to 5000 mg/kg"}}, "data": [{"molecule": "arazyme: enzyme purified from Aranicola proteolyticus HY-3 (KCTC 0268BP) culture; monomer of approximately 51.5 kDa; amino acid sequence SEQ ID No: 1 (protein, listed as Aranicola proteolyticus, Zn binding site (192)..(192); Zn binding site (196)..(196); Zn binding site (323)..(323)) MQSTKKAIEITESSLAAASSAYNAVDDLLHYHERGNGIQVNGKDSFSTEQAGLFITRENQTWNGYKVFGQPVKLTFSFPDYKFSSTNVAGDTGLSKFSAEQQQQAKLSLQSWSDVANITFTEVGAGQKANITFGNYSQDRPGHYDYDTQAYAFLPNTIYQGQNLGGQTWYNVNQSNVKHPASEDYGRQTFTHEIGHALGLSHPGDYNAGEGNPTYRDASYAEDTREFSLMSYWSETNTGGDNGGHYAAAPLLDDISAIQHLYGANQTTRTGDTVYGFNSNTGRDFLSTTSNPQKVIFAAWDAGGNDTFDFSGYTANQRINLNEKSFSDVGGLKGNVSIAAGVTIENAIGGSGNDVIVGNAANNVLKGGAGNDVLFGGGGADELWGGAGKDTFVFSAVSDSAPGASDWIKDFQKGIDKIDLSFFNQGAQGGDQIHFVDHFSGAAGEALLSYNASNNVSDLALNIGGHQAPDILVKIVGQVDVATDFIV", "values": [{"measurement": "cartilage damage of femoral joint surface, visual observation", "setting": "[1]; arazyme 250 mg/kg, celecoxib 10 mg/kg/day", "result": "less cartilage damage was generally shown than in the negative control group"}, {"measurement": "lesions of tibia joint surface, visual observation", "setting": "[1]; positive control group compared with test material group", "result": "generally similar lesions were observed in the groups"}, {"measurement": "expression of TNF-α in serum compared with negative control group", "setting": "TNF-α", "result": "at a lower level than the negative control group"}, {"measurement": "damage of joint cartilage, hematoxylin-eosin staining", "setting": "[2]", "result": "most of the vertical fissures were formed into sites corresponding to the mid zones from the surface"}, {"measurement": "loss of collagen, azan staining", "setting": "[2]", "result": "weak loss of collagen"}, {"measurement": "loss of proteoglycan, toluidine blue staining", "setting": "[2]", "result": "proteoglycan was lost into the mid zone"}, {"measurement": "microscopic findings in liver, heart, lung and pancreas", "setting": "[3]; 24 hours after oral administration up to 5000 mg/kg", "result": "No pathological symptoms were observed"}, {"measurement": "general symptoms (activity, walking, temperament, convulsion)", "setting": "[3]; [4]", "result": "no abnormal symptoms"}, {"measurement": "outward appearance and functions (respiration, salivation, feces, vomiting)", "setting": "[3]; [4]", "result": "No abnormal changes were observed"}, {"measurement": "estimated LD50", "setting": "[3]; single oral administration 0, 1250, 2500, 5000 mg/kg", "result": "at least 5000 mg/kg"}]}]}
